Key:
[1] = background, literature or label; cited from earlier work
[2] = phase 1 studies, repeat dosing; cited from earlier work
[3] = biological target: plasma kallikrein (Homo sapiens, UniProt P03952); experiment: Inhibition of enzyme activity of pre-activated plasma (compound added after DXS); assay type: biochemical; conditions: added 3.5 minutes post DXS; compound 300, 1000, 3000 nM; C1-INH 3000 nM
Experimental: The ability of the compound to inhibit the enzyme activity of pre-activated plasma was assessed by addition of the compound after DXS stimulation. Aliquots of plasma (20 μL) were mixed with a 2.5 μL solution containing […] fluorogenic substrate (H-DPro-Phe-Arg-AFC) and a 2.5 μL solution of dextran sulphate (DXS; 100 μg/mL) which acted as an activator of the plasma kallikrein-kinin pathway. Enzyme activity was immediately measured by monitoring the accumulation of fluorescence liberated from the substrate by substrate cleavage over 16 minutes. At 3.5 minutes post DXS addition 5 μl of inhibitors or water control are were added into each well. The compound was tested at concentrations of 300, 1000 and 3000 nM. C1-INH at a concentration of 3000 nM and vehicle controls were also included.

Sequence of plasma kallikrein (P03952 391-638 limits assumed): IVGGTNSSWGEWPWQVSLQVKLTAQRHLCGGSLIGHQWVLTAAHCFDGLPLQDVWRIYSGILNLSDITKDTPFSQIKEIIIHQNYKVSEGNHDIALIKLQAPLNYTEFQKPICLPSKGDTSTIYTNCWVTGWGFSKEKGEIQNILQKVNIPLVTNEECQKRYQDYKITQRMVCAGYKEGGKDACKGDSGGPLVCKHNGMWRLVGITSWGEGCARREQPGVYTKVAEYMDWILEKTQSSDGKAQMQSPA
Sequence of plasma kallikrein (P03952 20-390 partner limits assumed): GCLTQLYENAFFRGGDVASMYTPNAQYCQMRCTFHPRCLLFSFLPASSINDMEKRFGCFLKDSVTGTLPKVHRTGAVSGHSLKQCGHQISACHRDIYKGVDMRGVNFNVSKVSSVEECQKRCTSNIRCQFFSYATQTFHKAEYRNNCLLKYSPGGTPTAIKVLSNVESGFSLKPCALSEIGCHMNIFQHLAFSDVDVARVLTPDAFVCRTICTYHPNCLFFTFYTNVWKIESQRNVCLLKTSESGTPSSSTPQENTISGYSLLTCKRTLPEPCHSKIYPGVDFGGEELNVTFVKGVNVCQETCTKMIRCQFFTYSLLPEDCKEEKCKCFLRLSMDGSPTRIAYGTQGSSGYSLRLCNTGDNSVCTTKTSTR

In the case of N#Cc1cccc([C@@H](NCC2CC2)c2ccc(F)c(NC(=O)c3cc(C(F)(F)F)nn3-c3cccc(CN)c3)c2)c1 [Berotralstat], the reported adverse reactions [1] is listed as “higher doses were associated with more gastrointestinal adverse effects”.

In the case of COCc1nn(Cc2ccc(Cn3cc(F)ccc3=O)cc2)cc1C(=O)NCc1nccc(OC)c1F [KVD824, 1-({4-[(5-fluoro-2-oxopyridin-1-yl)methyl]phenyl}methyl)-N-[(3-fluoro-4-methoxypyridin-2-yl)methyl]-3-(methoxymethyl)pyrazole-4-carboxamide], the pharmacokinetic profile [2] is given as “consistent pharmacokinetic profile over repeat dosing”.

For “C1-INH: C1 inhibitor (C1-INH, Sigma Cat #E0518), therapeutic benchmark for HAE [Compound C1-INH]”, the “inhibition of enzyme activity after activation of plasma” value [3] was “slower action”.

For Ecallantide, the reported adverse reactions [1] is listed as “risk of anaphylactic reactions”.

B1: lanadelumab: recombinant fully human IgG1 kappa light chain monoclonal antibody, active substance of Takhzyro® (antibody, chains of the INN, looked up, V domains shown)
VH: EVQLLESGGGLVQPGGSLRLSCAASGFTFSHYIMMWVRQAPGKGLEWVSGIYSSGGITVYADSVKGRFTISRDNSKNTLYLQMNSLRAEDTAVYYCAYRRIGVPRRDEFDIWGQGTMVTVSS
VL: DIQMTQSPSTLSASVGDRVTITCRASQSISSWLAWYQQKPGKAPKLLIYKASTLESGVPSRFSGSGSGTEFTLTISSLQPDDFATYYCQQYNTYWTFGQGTKVEIK
In the case of B1, the reported adverse reactions [1] is given as “hypersensitivity, injection site pain, injection site erythema, and injection site bruising”.

From US20240122909A1, “TREATMENTS OF HEREDITARY ANGIOEDEMA” (KALVISTA PHARMACEUTICALS LIMITED, priority 2021, published 2024)
